The test system of one experiment is 66cl4 Sema7A DDK cells. In words: IncuCyte percent confluence time course. It counts as cell-based, mouse. As for the experimental part: For proliferation assays, cells were plated at 2000 cells per well of a 96-well dish. Four pictures of different regions in each well were taken every four hours for 48 h using an IncuCyte ZOOM (Essen BioScience, Ann Arbor, MI, USA). Percent confluence was determined using the IncuCyte ZOOM software (Essen BioScience). 66cl4 Sema7A DDK cells were plated in a 96-well plate in triplicate at 1,500 cells/well. They sat down over 24 hours and then were treated with 1000 nM IgG control, 10 nM SmAbH1, 100 nM SmAbH1, 200 nM SmAbH1, 500 nM SmAbH1, or 1000 nM SmAbH1. The plate was promptly transferred to the IncuCyte where photos were taken and analyzed every 4 hours for 7 days. For additional treatment studies in MCF7, TC11 and SSM2 cells ([…]) were plated in a 24-well plate in complete media and allowed to sit down over 24 hours. At 24 hours after plating, cells were treated with 500 nM IgG control, 500 nM SmAbH1, 8 nM Fulvestrant or the combination. The plate was incubated at 37 C for 48 hours, then fixed with 10% NBF and stained with crystal violet.

The test system of a further experiment is pNFκB in MDA468 cells. In words: Western blot for phosphorylation of NFκB. Format: cell-based, human. The settings on record: MDA468, low SEMA7A. Here is the method: (§1) In another exemplary method, the ability of the anti-SEMA7A monoclonal antibodies to affect cellular processes related to cell survival was tested. In one exemplary method, human triple negative breast cancer cell lines with low (MDA468) or high (MDA231) levels of SEMA7A were treated with SmAbH1 (CUH1) or commercially available monoclonal antibody-based inhibitors of an integrin receptor for SEMA7A (α6β1) and then evaluated using Western blot for phosphorylation of NFκB (pNFκB), a key survival marker.
Background: In western blotting, separated proteins are transferred to a membrane and probed.

For a further experiment, the system named is pNFκB in MDA231 cells. In words: Western blot for phosphorylation of NFκB. It counts as cell-based, human. The settings on record: MDA231, high SEMA7A. Here is the method:
as §1

“Also recorded” adds a separate entry of the source.

B1: SmAbH1: mouse monoclonal antibody against SEMA7A generated using the 10-mer immunizing peptide … (SEQ ID NO: 2) (antibody, V domains shown)
VH: QVKLQESGTVLARPGASVKMSCKASVYSFTSYWMHWVKQRPGQGLEWIGAIYPGNSDTSYNQKFKGKAKLTAVTSASTAYMELSSLTNEDSAVYYCTRGGAPTMITAYYAMDYWGQGTSVTVSS
VL: DIQMTQTTSSLSASLGDRVTISCRASQDISNYLNWYQQKPDGTVKLLIYYTSRLHSGVPSRFSGSGSGTDYSLTISNLEQEDIATYFCQQGNTLPWTFGGGTKLEIKR
Turning to B1, the “viability / percent confluence over time” value in the experiment with 66cl4 Sema7A DDK cells (66cl4, 10-1000 nM SmAbH1, 7 days) is on record as “decreased viability; also recorded: dose dependency”. Besides, the “decrease of cellular confluence compared to commercially available SEMA7A directed antibodies” value with 66cl4 Sema7A DDK cells (66cl4 DDK and DDK SEMA7A cells, vs SC-374432 and Ab23578) is recorded as “greater than commercially available”. Besides, the results for the “downstream NFκB activation (pNFκB levels)” value in the experiment with pNFκB in MDA468 cells and in the experiment on pNFκB in MDA231 cells were “blocked downstream NFκB activation” and “blocked downstream NFκB activation; also recorded: the effect was stronger”, respectively.

The values above are taken from patent publication US20250206839A1, “METHODS, COMPOSITIONS AND USES FOR SEMA7A MONOCLONAL ANTIBODIES” (THE REGENTS OF THE UNIVERSITY OF COLORADO, A BODY CORPORATE, priority 2022, published 2025).
